In this assay the target is T1, human recombinant tPA (human, UniProt P00750 36-562).
T1 construct: The sentence 'Human recombinant serpinE2 and tPA were purchased from R&D' is read as human for both; source: bought: R&D
Nature of the assay: SDS-stable complex seen by western blot; recombinant serpinE2 and tPA bound to each other beforehand, complex immunoprecipitated with Ab11 and Protein G, western blot with a serpinE2-specific antibody; complex band above uncomplexed serpinE2. Conditions: both partners purified. A general note: Immunoblotting shows a protein as a band on a membrane.

T1 sequence (P00750 36-562): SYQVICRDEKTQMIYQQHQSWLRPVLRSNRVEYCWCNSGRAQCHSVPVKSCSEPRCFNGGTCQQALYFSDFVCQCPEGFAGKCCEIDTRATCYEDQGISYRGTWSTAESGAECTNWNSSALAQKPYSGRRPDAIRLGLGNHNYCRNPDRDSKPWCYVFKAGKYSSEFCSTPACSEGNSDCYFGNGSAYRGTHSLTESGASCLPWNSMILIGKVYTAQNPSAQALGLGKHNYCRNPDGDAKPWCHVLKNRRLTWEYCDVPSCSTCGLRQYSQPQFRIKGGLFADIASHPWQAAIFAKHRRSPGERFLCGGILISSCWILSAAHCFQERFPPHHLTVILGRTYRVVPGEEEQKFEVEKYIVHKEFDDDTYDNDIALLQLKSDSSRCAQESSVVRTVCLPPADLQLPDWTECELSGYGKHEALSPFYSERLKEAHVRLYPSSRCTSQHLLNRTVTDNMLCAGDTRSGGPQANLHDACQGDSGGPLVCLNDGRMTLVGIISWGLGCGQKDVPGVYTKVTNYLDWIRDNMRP

B1: human recombinant serpinE2 (natural protein, UniProt P07093 20-398, looked up)
chain: SHFNPLSLEELGSNTGIQVFNQIVKSRPHDNIVISPHGIASVLGMLQLGADGRTKKQLAMVMRYGVNGVGKILKKINKAIVSKKNKDIVTVANAVFVKNASEIEVPFVTRNKDVFQCEVRNVNFEDPASACDSINAWVKNETRDMIDNLLSPDLIDGVLTRLVLVNAVYFKGLWKSRFQPENTKKRTFVAADGKSYQVPMLAQLSVFRCGSTSAPNDLWYNFIELPYHGESISMLIALPTESSTPLSAIIPHISTKTIDSWMSIMVPKRVQVILPKFTAVAQTDLKEPLKVLGITDMFDSSKANFAKITTGSENLHVSHILQKAKIEVSEDGTKASAATTAILIARSSPPWFIVDRPFLFFIRHNPTGAVLFMGQINKP
notes: serpinE2 (PN-1, protease nexin-1), human, recombinant, bought; With tPA it forms the serpin/protease complex that is seen as a band above uncomplexed serpinE2 on the western blot; also called PN-1; purified human serpinE2; source: bought: R&D
As for B1, the binding result is reported as “binds”.

These data come from PMC5347692, “Serpin E2 promotes breast cancer metastasis by remodeling the tumor matrix and polarizing tumor associated macrophages” (Oncotarget, 2016).
